Assays:
SRA-Spacer [1] = biological target: T1, SRA-Spacer (human, UniProt Q96T88 414-674); experiment: FP; 150 mM NaCl; ITC: 10 mM HEPES pH 8.0, 100 mM NaCl, 18 C; EMSA: 20 mM HEPES pH 7.5, 100 mM NaCl, 8% glycerol, 1 mM DTT, on ice; pull-down: 20 mM HEPES-NaOH pH 8.0, 100 mM NaC
T1 sequence: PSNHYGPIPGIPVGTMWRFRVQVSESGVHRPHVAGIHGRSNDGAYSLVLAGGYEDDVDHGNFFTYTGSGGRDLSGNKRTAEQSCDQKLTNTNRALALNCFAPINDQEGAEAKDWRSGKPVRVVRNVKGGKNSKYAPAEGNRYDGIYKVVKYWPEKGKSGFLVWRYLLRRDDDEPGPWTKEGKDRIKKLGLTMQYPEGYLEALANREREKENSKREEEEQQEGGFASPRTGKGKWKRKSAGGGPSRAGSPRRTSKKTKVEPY

SRA-Spacer [2] = biological target: T1, SRA-Spacer; experiment: FP; DNA length series; ITC: 10 mM HEPES pH 8.0, 100 mM NaCl, 18 C; EMSA: 20 mM HEPES pH 7.5, 100 mM NaCl, 8% glycerol, 1 mM DTT, on ice; pull-down: 20 mM HEPES-NaOH pH 8.0, 100 mM NaC

B1: FAM-12bp-HM-DNA (dsDNA)
DNA 1: CCATGCGCTGAC
DNA 2: GTCAGCGCATGG
modifications: 5-methyl-dC at position 6 of strand 2 (GTCAGXGCATGG)
- Kd (SRA-Spacer [1]): 580 ± 98 nM
- Kd (SRA-Spacer [2]): 340 ± 90 nM
